Here are results for 3 molecules from US20140341881A1 (DERMADIS, published 2014).

Experiment [1] has as its target T1, human kallikrein 2 (hK2) (human, UniProt P20151 25-261). In words: cell-based or functional assay.
Another experiment concerns the target human kallikrein hK1 (human, UniProt P06870 25-262). The experiment in a line: cell-based or functional assay.
The target of experiment [2] is T2, human chymotrypsin (Chtr) (human, UniProt P17538 19-263). The experiment in a line: cell-based or functional assay.
In experiment [3] the target is T3, human plasma kallikrein (PK) (human, UniProt P03952 20-638). The experiment in a line: cell-based or functional assay.
In experiment [4] the target is urokinase plasminogen activator (uPA) (UniProt P00749 21-431, limits assumed). The experiment in a line: cell-based or functional assay.
The target in experiment [5] is T4, human neutrophil elastase (HNE) (human, UniProt P08246 30-247, limits assumed).
T4 sequence (looked up): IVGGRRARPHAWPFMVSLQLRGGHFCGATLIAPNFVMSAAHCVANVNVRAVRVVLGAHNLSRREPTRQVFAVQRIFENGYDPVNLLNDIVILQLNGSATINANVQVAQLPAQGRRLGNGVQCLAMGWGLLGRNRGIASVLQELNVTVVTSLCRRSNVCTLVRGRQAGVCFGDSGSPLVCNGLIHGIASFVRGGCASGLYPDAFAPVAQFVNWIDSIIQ
In words: cell-based or functional assay.

In experiment [6] the target is T1, human kallikrein 2 (hK2). The experiment in a line: progress curve, pseudo-first order, fluorogenic substrate.
Experiment [7] addresses T2, human chymotrypsin (Chtr). Described as above.
The target in experiment [8] is T3, human plasma kallikrein (PK). The experiment is described as above.
Experiment [9] has as its target T4, human neutrophil elastase (HNE). Described as above.
In experiment [10] the target is T1, human kallikrein 2 (hK2). The experiment in a line: residual enzyme activity against [I]o/[E]o, fluorogenic substrate.
The target in experiment [11] is T2, human chymotrypsin (Chtr). Described as above.
The target of experiment [12] is T3, human plasma kallikrein (PK). The description is as above.
For experiment [13], the target named is T4, human neutrophil elastase (HNE). Described as above.
The target of experiment [14] is T2, human chymotrypsin (Chtr). In words: progress curve.
Experiment [15] addresses T3, human plasma kallikrein (PK). The experiment in a line: progress curve.
In experiment [16] the target is T5, human kallikrein 14 (hK14) (human, UniProt Q9P0G3 25-251, limits assumed).
T5 construct: range counted on GenBank AAK48524 (printed), which may differ from the UniProt numbering; also called recombinant hK14
T5 sequence (looked up): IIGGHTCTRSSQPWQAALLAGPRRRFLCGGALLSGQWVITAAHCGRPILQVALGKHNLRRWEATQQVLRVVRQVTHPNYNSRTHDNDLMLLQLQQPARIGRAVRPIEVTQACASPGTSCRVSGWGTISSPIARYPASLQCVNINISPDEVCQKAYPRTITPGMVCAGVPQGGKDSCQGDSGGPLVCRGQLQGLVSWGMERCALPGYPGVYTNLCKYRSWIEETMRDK
In words: progress curve.

The target of experiment [17] is T2, human chymotrypsin (Chtr). In words: cell-based or functional assay. This is another data set of the same source.
Experiment [18] deals with T3, human plasma kallikrein (PK). In words: cell-based or functional assay. This is another data set of the same source.
Experiment [19] concerns the target T4, human neutrophil elastase (HNE). The experiment in a line: cell-based or functional assay. This is another data set of the same source.
In the next experiment the target is thrombin. In words: cell-based or functional assay.
Experiment [20] deals with T5, human kallikrein 14 (hK14). In words: cell-based or functional assay.
For experiment [21], the target named is T6, human kallikrein 8 (hK8) (human, UniProt O60259 33-260).
T6 sequence (looked up): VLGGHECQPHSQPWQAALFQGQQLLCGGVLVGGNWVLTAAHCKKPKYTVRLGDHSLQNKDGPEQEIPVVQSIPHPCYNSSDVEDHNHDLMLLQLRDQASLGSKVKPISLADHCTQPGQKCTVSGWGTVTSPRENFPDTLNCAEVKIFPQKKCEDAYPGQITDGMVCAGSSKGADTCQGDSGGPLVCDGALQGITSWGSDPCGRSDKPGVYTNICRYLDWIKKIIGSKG
The experiment in a line: cell-based or functional assay.

Experiment [22] addresses T2, human chymotrypsin (Chtr). In words: residual enzyme activity against [I]o/[E]o.
In experiment [23] the target is T3, human plasma kallikrein (PK). In words: residual enzyme activity against [I]o/[E]o.
The target in experiment [24] is T5, human kallikrein 14 (hK14). The experiment in a line: residual enzyme activity against [I]o/[E]o.
The target in experiment [25] is T6, human kallikrein 8 (hK8). The experiment in a line: residual enzyme activity against [I]o/[E]o.
Experiment [26] concerns the target T1, human kallikrein 2 (hK2). The experiment in a line: Western blot, 1 µg inhibitor with 100 ng kallikrein, 1 h at 37 C. The protocol: (§1) Analysis of the inhibitory reaction between rACTs and the human kallikreins were analysed by Western Blot (data not shown). For each variants of ACT, 1 μg of inhibitor was incubated with 100 ng of either hK2 or hK3 during 1 hour at 37° C. under physiological conditions.
For orientation: A western blot detects proteins with antibodies after separation by electrophoresis.

Experiment [27] addresses T7, prostate specific antigen (PSA, hK3) (human, UniProt P07288 25-261). Described as above. On the procedure: as §1
In experiment [28] the target is T7, prostate specific antigen (PSA, hK3). In words: cell-based or functional assay.
The target of experiment [29] is T3, human plasma kallikrein (PK). In words: progress curve, ka with PK against ka with hK2. On the procedure: Under these conditions, a fixed amount of enzyme (2 nM) was mixed with different concentrations of inhibitor (0-800 nM) and an excess of substrate (10 μM). Each reaction was made in reaction buffer (50 mM Tris pH 7.5, 150 mM NaCl, 0,05% Triton X-100, 0.01% BSA) at 25° C. for 45 min and the rate of product formation was measured using a FLₓ800 fluorescence 96-well microplate reader (Biotek, USA). In this model, inhibition is considered to be irreversible over the course of reaction and the progress of enzyme activity is expressed by product formation (P), beginning at a rate (vz) and is inhibited over time (t) at a first-order rate (kobs), rate constant that is dependent only on inhibitor concentration.
The rate of inhibitory reaction with variant ACTs was determined for each protease showing reactivity with these inhibitors. To that end, interaction of hK2 and recombinant serpins was measured under pseudo-first order conditions using progress curve method. hK2 (2 nM) and substrate Z-FR-AMC […] were added to varying amounts (20 n-800 nM) of inhibitors rACT_{8.20}, rACT_{5.18} and inhibitors rACT_{6.2}, rACT_{8.3}, rACT_{6.7}, rACT_{6.1} (data not shown). […] After determination of kobs, association constants (ka) were calculated using Kₘ of the proteases for their corresponding substrates (table VI). […]

Like-named read-outs stand apart in the source and are kept apart here.

T2 sequence (P17538 19-263): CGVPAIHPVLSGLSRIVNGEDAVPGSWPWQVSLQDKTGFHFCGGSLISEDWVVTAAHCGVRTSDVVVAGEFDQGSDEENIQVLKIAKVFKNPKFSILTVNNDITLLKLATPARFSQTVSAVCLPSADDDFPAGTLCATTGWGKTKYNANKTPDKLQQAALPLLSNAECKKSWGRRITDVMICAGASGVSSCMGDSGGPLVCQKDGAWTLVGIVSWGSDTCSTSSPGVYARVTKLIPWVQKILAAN
T3 sequence (P03952 20-638 limits assumed): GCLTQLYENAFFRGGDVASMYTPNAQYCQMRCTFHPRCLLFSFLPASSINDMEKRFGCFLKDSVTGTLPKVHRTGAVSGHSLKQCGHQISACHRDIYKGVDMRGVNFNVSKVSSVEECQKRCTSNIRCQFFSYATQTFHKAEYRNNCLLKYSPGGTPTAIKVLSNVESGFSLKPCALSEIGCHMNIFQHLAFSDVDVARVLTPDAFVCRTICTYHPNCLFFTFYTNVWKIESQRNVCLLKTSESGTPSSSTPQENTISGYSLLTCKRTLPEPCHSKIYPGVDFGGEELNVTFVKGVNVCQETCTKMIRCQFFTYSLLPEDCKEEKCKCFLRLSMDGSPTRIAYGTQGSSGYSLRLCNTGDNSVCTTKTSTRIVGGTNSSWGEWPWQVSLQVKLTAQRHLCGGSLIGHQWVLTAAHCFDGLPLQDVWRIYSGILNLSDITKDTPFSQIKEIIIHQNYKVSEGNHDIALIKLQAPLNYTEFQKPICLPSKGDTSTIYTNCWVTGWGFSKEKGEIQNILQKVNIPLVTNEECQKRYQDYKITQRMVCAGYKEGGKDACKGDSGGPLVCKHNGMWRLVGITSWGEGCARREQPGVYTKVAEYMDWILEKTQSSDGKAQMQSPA

B1: rACT8.20 (other)
chain: MRGSHHHHHHSRHPNSPLDEENLTQENQDRGTHVDLGLASANVDFAFSLYKQLVLKAPDKNVIFSPLSISTALAFLSLGAHNTTLTEILKGLKFNLTETSEAEIHQSFQHLLRTLNQSSDELQLSMGNAMFVKEQLSLLDRFTEDAKRLYGSEAFATDFQDSAAAKKLINDYVKNGTRGKITDLIKDLDSQTMMVLVNYIFFKAKWEMPFDPQDTHQSRFYLSKKKWVMVPMMSLHHLTIPYFRDEELSCTVVELKYTGNASALFILPDQDKMEEVEAMLLPETLKRWRDSLEFREIGELYLPKFSISRDYNLNDILLQLGIEEAFTSKADLSGITGARNLAVSQVVHKAVLDVFEEGTEASAATAVKITLRSRAVETRTIVRFNRPFLMIIVPTDTQNIFFMSKVTNPKQA
notes: recombinant alpha-1-antichymotrypsin (serpin) variant, RSL substrate peptide LRSRA; N-terminal His tag, E. coli TG1; also called MD820; MD 820
Turning to B1, the INHIBITION % in the experiment with human kallikrein 2 (hK2) [1] worked out at 95%; with human kallikrein hK1, 0%; in [2], 66%; in experiment [3] it was 54%; in experiment [4] it was 0%; in [5] it was 30%. Further, the kon in the experiment with human kallikrein 2 (hK2) [6] amounted to 1780 M⁻¹ s⁻¹; in experiment [7], 905 M⁻¹ s⁻¹; in [8] it was 424 M⁻¹ s⁻¹; in experiment [9], 158 M⁻¹ s⁻¹. Besides, the “SI (stoichiometry of inhibition)” value in the experiment with human kallikrein 2 (hK2) [10] came to 105; in [11] it was 134; in experiment [12] it was 150; in [13], 334.

B2: rACTPCI (other)
chain: MRGSHHHHHHSRHPNSPLDEENLTQENQDRGTHVDLGLASANVDFAFSLYKQLVLKAPDKNVIFSPLSISTALAFLSLGAHNTTLTEILKGLKFNLTETSEAEIHQSFQHLLRTLNQSSDELQLSMGNAMFVKEQLSLLDRFTEDAKRLYGSEAFATDFQDSAAAKKLINDYVKNGTRGKITDLIKDLDSQTMMVLVNYIFFKAKWEMPFDPQDTHQSRFYLSKKKWVMVPMMSLHHLTIPYFRDEELSCTVVELKYTGNASALFILPDQDKMEEVEAMLLPETLKRWRDSLEFREIGELYLPKFSISRDYNLNDILLQLGIEEAFTSKADLSGITGARNLAVSQVVHKAVLDVFEEGTEASAATAVKITFRSALVETRTIVRFNRPFLMIIVPTDTQNIFFMSKVTNPKQA
notes: E. coli TG1, Ni-NTA purified; also called MDCI; MD CI
With B2, the values for the kon in [14], in experiment [15] and in experiment [16] were 86200 M⁻¹ s⁻¹, 25900 M⁻¹ s⁻¹ and 287000 M⁻¹ s⁻¹, respectively. The INHIBITION % is 98% in experiment [17]; 100% in experiment [18]; 0% in experiment [19]; 0% in the experiment with thrombin; 100% in [20]; around 25% in the experiment with human kallikrein 8 (hK8) [21]. Further, the “SI (stoichiometry of inhibition)” value in experiment [22] is 1; in experiment [23], 4.6; in experiment [24], 3.2; with human kallikrein 8 (hK8) [25], around 180. Moreover, the binding result (with human kallikrein 2 (hK2) [26]; in [27]) was “binds” each time.

B3: rACT6.7 (other)
chain: MRGSHHHHHHSRHPNSPLDEENLTQENQDRGTHVDLGLASANVDFAFSLYKQLVLKAPDKNVIFSPLSISTALAFLSLGAHNTTLTEILKGLKFNLTETSEAEIHQSFQHLLRTLNQSSDELQLSMGNAMFVKEQLSLLDRFTEDAKRLYGSEAFATDFQDSAAAKKLINDYVKNGTRGKITDLIKDLDSQTMMVLVNYIFFKAKWEMPFDPQDTHQSRFYLSKKKWVMVPMMSLHHLTIPYFRDEELSCTVVELKYTGNASALFILPDQDKMEEVEAMLLPETLKRWRDSLEFREIGELYLPKFSISRDYNLNDILLQLGIEEAFTSKADLSGITGARNLAVSQVVHKAVLDVFEEGTEASAATAVKIKLRTTLVETRTIVRFNRPFLMIIVPTDTQNIFFMSKVTNPKQA
notes: recombinant ACT variant, RSL substrate peptide KLRTT; N-terminal His tag, E. coli TG1; also called MD67; MD 67
Turning to B3, the INHIBITION % with human kallikrein 2 (hK2) [1] came out at 100%; in experiment [28], 0%; in the experiment with human kallikrein hK1, 0%; in experiment [3] it was 36%; in [4], 0%. In [29], the “fold lower ka than with hK2” value was 45 fold. In addition, the kon in the experiment with human kallikrein 2 (hK2) [6] came out at 8990 M⁻¹ s⁻¹; in experiment [8], 201 M⁻¹ s⁻¹. Further, the “SI (stoichiometry of inhibition)” value is 9 in the experiment with human kallikrein 2 (hK2) [10] and 277 in [12].

The kon is the second-order rate constant of association. The low end stands for slower complex formation, the high end for faster complex formation.
